Experimental data from the DeepSol protein solubility set.

test: soluble on expression in E. coli; label from the status in PepcDB or PDB records

Soluble on expression in E. coli, not soluble:
MGSDKIHHHHHHMGHSLNAKYGLKRVINASGRMSILGVSAPTDTVMDAMKHGGQNYVEIADLVDKAGDHIARILDSEAAVVVNSASSGIALSIAAIVTEGNRRKSERLHQEVIAKNEVIMLKGHNVQYGAPVETMIYLGGGKLVEVGYANEGKAEHIEDAIGENTAAILYVKSHHAVQKNMISVEEAWEVAQRNNIPLIVDAAAEEDIQKYVKYADLAIYSGSKAIEGPTSGIVGGKRKYIEWLKVQLHCIGRSMKVGKETTFGLLQALDEYGVKEDKSEQEKELLQVLMPLKELNGVNVTIVQDEAGRAIFRARIHIDENELNKSAKDVVTALREGEIAIYTRDYGVRQGFFDIDPRPLLGDDIHVIEEKLREIVGGN
MGSDKIHHHHHHMGKHTKFGSSDDEGETETSVAKRQKDEKKEKKKEKRDRSRSPHKERERSPKRDRHPEKNESRRHDDRDQERRRDYGRNDRRDDRRGDGSWKTDRNDRNDRRNDFQRRDDKNRLSAEEIAAQRKALWGNKKVAGESSSSNTTDTASSSSEPATGGKNEKLWSSAIAATGVDSSKANKFMRLMGVKNAPKPTDDSSRLSDEKNRQDKMLNDLEKQYAIARETTHMGRGTGFGFGH
MGSDKIHHHHHHMGKLLTPDDLPIVRGRVYHLDLAPEELARRVIVVGDPDRVPVLAEELLALREVDRFHRGFRTITGVTAETGQRVSFVTSGIGAPSTEIVLNELAALNEVDFASMTRRERWQPLTLVRLGTSGGLNPVTPVGTLILTDYVVGLDNTALYYDIPLPDEACALLEEKVGSVLTGTELPGARFAGKIAPYAARSDRGLLASLTAAASTLELNWTRGLTISSAGFFAEQGRGVARVGTTQVNLLDAFERLASPWPGLELQNMEMEAGFFLHFLGGMRYRAAVVCVVINQRSSGVFMADYRRQVLDGARLILRAFKEYGDARAKSGALA
MGSDKIHHHHHHMGKPVSSPYYIGCSGWHYAHWVGAFYPPGLPSTGRLAFYAGRFHTVEINSSFYRLPSEKCLRAWHDGTPAGFLFALKASRFITHMKKLKDSEASLARLLGRAENLGEKLGPVLFQLPPHWRRNAKRLEGFLRVLPSGHRYAFEIRDPSWHHPEIYALLNAYNAAFCIFDIAGFQSPIQLTTDFAYIRLHGPSFAAYAGRYTTEALRAWAARIRTWGLRTVYVYFDNDQAAYATHNALELMGILGL
MGSDKIHHHHHHMGLAKTRSAAISGVTGVIVDVEANIGAGLPGTYIVGLADAAVAEARQRIKTAVNNSELPWPKTKVIVNLSPASLRKNGAQFDLGICMAIMAASGMHNPDCRDIENTLFLGEIGLDGAIKPISGLVPALLAARGAEIRNVVIPWGNAAEAMAVIDDSAMNVLVARSISEATEWLKGKDDLIAAHDVILDEHATKKQPHKVGDMQDVVGQSDAKKAAEIAVAGGHNIVMIGPPGSGKSMIAQRMAGLLPALTHTEMIEATAIHSVMGQAFNGPMTHPPFVAPHHSITKAALLGGGSGNLQPGAASLAHTGVLFLDEVSEIPANILDCLRMPLECGEIKLMRHRREVTFPARFQLVMATNPCRCAAELPSECRCSATTRARYLSNISGPLRDRLDIFVRTHAQGAVISDANQESSKSIAERVQSARERSEHRWRTAGFTVTTNAAMDPYHLRRHFPADEASMALLSSYLGDGELSQRGVDRALKVAWTLCDLEGKTRPDLGHTAYALELRDDCIRENAA
MGSDKIHHHHHHMGNILWVASYPKSGNTWVRAFLENYIQNAEQGVDINTMHKISTAESAAHRFQARLQDGRKTTDLSLDEICALRPAVQADIAMQAHGTTFVKTHNYLGTYKEYPLHNSSVTSGSIYIVRNPLDVTVSMANYFGYSIDETIAYMAEEMTGTPNEPENVPQVITSWSMHVSSWTQNPEEAKLVLRYEDILDDPKKVFRKIESFLGLKKDPNRLKNAIKHSSFAQLKAQESKRGFVEKHENAKSFFRQGSKNQWRQVLSDEQVAKIVEHHGEQMARFKYLPGKLR
MGSDKIHHHHHHMGQIRVSGLGKAYKQYPNRWSRLFEWLVPFSPPRHHLHWILREVEFTIEPGEAVGIVGVNGAGKSTLLKMIAGTTQPTCGEIRVAGRVAALLELGMGFHPDFTGRQNVFMAGQLLGMQVEEIQALMPDIEAFAEIGEAIEQPVRTYSSGMQMRLAFSVATARRPDILIVDEALSVGDAYFQHKSFERIRSFRKAGTTLLIVSHDRSAIQSICDSAILLEQGRMAMRGRPEEVMDYYNALLAEREGQTVRQEMLADGQVRTISGTGEAAILDVRMVDQRQRALEVVEVGQAVTLEVEVEVRQDIERLILGFMIKDRLGQPMYGINTHRLDKALTDLKAGERITYRFAFDMRLGKGHYSVALSLSRLDSHLDRNFEWRDYGLVFHVINNRQEDFVGCSWLGAETHISRSGEAALDPTSAESTP
MGSDKIHHHHHHMGQVSGCFATSYAEARQKFLAAARGAGATLAEFPHPTRRGSAGEDLAMDVAWVGPADARRVLIISSGVHGVEGFCGSGAQVALLSDSILLADCAEARLGLLVVHAVNPYGFSHLRRVNEDNVDLNRNFMDFAQPLPDNAPYAEIAPMLLPTHWPPSGEEQAQFMKAVAEKGMDWYQTAVSSGQYQDPKGLFYGGNKETWSNYTLRRVLARFGSARGSLRWIDIHTGLGPWGYGEPICMGPDDDGQLKRTRAIWGGEVTSIYDGSSSSARLTGLAWEAVPGTLPDVDYAGIALEFGTLPVAEVLDALRGDHWLYLHPEADENQRTLVRQAMWRAFYGDAYDWRAGVVEQVTEAVRKAMRAR
MGSDKIHHHHHHMGSSRKVIITCAVTGAIHTPSMSPYLPVTPDEVAQASIGAAEAGAAVIHLHARDPRDGRPTQDPAAFAEFLPRIKSNTDAVINLTTGGSPHMTVEERLRPATHYMPELASLNMGSMNFGLYPMLERFKEFAHGWEREHLERSRDLVFKNTFADIEFILKTCGGNGTRFEFECYDTSHLYNLAHFVDRKLATPPFFVQTVFGLLGGIGPHPEDLAHMRRTADRLFGADYVWSILGAGRHQIPLASIGAAQGANVRVGLEDSLWIAPGELAETNAAQVRKIRQVIEGLSLEVASPAEARTMLGLKGPQNVNF
MGSDKIHHHHHHMGYRLTRENLNTLFHKLKEDYLIYAPKRLIGKGAFSDTDRVRYDKINNVEEIEFDVKSDFSFKEILLPISETLFFFTEDSVKEAEGPKKGAIIFLRSCDINAVKRLDQIYLKNGFEDHYYKRIREKVKFVLMPCKTSFENCFCVSMGTNQADMYDASVELREEHFYIDNKEEKWKEFLKEVSLEELEVKPSFVMENKTKVKVPEGITTKIFKSKMWDEYDSRCINCGRCNFVCPTCTCFSMQDIFYTDNGKAGERRRVWASCMVDGFTNVAGGGSYRSKNGQRMRFKVMHKVYDYKKRNGYHMCVGCGRCDDICPEYISFSNCINKLKGAIKEVEDNE
MGSDKIHHHHHHMGYSFVHPTGVTLYNPEKAFNGYTLMSIRELGAGLIDMNGNVVRLWKDLHGFPNKLLPGGYVIGSLGIRDPAYGYQDQTDLVQVDWEGNVVWKFNRLEYIEDPDNKPQWMVRQHHDYQRDGNPVGYYIPGMECRTDGGNTLILCHENLFNTKISEKRLLDDCFIEVDWEGNILWSWRASDHFEEMNFSDAAKNAMYRNPNMLENGGGMGDWLHINSMSYLGPNQWYDAGDERFHPENIIWDGREANISAIIDKKSGVIVWQMGPDFSATKELRRIGQIIGQHHVHMIPKGLPGAGNILIFDNGSWGGYGTPSNVSKDGIKADHADRSRVIELNPVTMEVVWQLTASELGYKPAGIFDYRFYSPLTSSAQRLPNGNTLITEGTGFRVFEVTADHEVVWEFWSPFTNAVAPTVYRTYRYPYSYVPHLAKPQETPIPRLDIKTFRVPGAAAGQLANQIKVAGTTGYGDKQELCVSFGEEL
MGSDKIHHHHHHMHFFIRIKEKYIECIRGNINDMQTADYSMVSEIIGNPQRLGMLVFLMDGRFRTVNEVTKATNLKPNTVSLYLSHFEKISWLDDYFQGRWHYYRLANSEVASLIEKILVLSPKKKITYFNLNEEEKLLHTGRSCYNHLAGQLGVQLLCSMKTLNWIRQDGSAFQLTDKGQSNLNNALEIKFSFQEQKSWDFILPCMDWSERQLHLKGIVGKKILGAMLDKEWLYRPNRTRALALTYKGKEKFGDFLQIRA
MGSDKIHHHHHHMHHRSSPLSRCLNRPSLSENRLVERACLSVGRRPSSSRSRRQHAGRLALLLGTLAPAVVLAQAAPDTVAMPQGINLGGTSFMDGFGSTTPGWTVLEYLRYYDLDAIKNARGDNSPAFRDPQVGVSALLTQLIYVTPYSLGRGSLSFNTIIPLVNYDTSFAADSPVRLRSNGFGMGDISFGPALQMPPVMRDGRVFFFQRFALDLFAPVGKFDRDIAINQGTGFWSIAPQWAFTVQPTDNWEISARINYLYNFRTDRAGGVPPIPGFRFRNGQAGDAVWVNFASSVKVSEQLRVGVNGYFLQQLKDNRTNGERVADSKRMQLYLGPGLSWRVDAKNLFNLNLYIPLDVENSVAGNSVNLMYVHSL
MGSDKIHHHHHHMHHSHHLEIYEKLREKLDKAPVGLPKTVSGVEKEILSVLFDEEEAKIAVHMPFIRFTAEQLAERTGKSLEYVEKILNEMAKKGTVWKGEKDGKTYYRLFPVIVGFAEMPFLAGPGRDARQEKLAPLWAKYRKEGFLDELGDREHAILRALPEKSTISKQSVILPYEDAEKLVRDRDYHAVGYCPCRIMARLIGEGCRHSLEVCLHFGSLGKYMVEHGYARRITADEAVEILRKSNREGLVHVTERSKGPISTICNCCSDCCAFFRAIHEAGHPKTIAHSSYVASVDSSKCIACGICMLRCPMKAVKAKINREPANVEAEKCLGCGVCVPTCPVEAIELVEREELQEWPDHLTYYQELLADRGKDPAGLF
MGSDKIHHHHHHMHHVVGVRFKKAGKIYYFSPGDLDIPRGESVIVETSRGVEYGNVVIEKKTVGDNDVVLPLKQVIRVATEKDKLAVQENKEAAKKAYDVCVQKIMEHQLDMKLVDVEYTFDRNKVLFYFTADGRIDFRELVKDLASVFRTRIELRQIGVRDEAKMLGGIGPCGRILCCSSFLGDFEPVSIKMAKDQNLSLNPAKISGLCGRLMCCLKYENDMYESAKQELPDLGETIDTPHGKGKVVGLNMLERLVQVHLFEGERVLEFSLEELLERGAVSAEATE
MGSDKIHHHHHHMHNKFYRGRFAVAPMLDWTTRHCRYFHRQFSQQALLYTEMITAPAILHAKYDLLEYDPAEQPVALQLGGSDPTQLANCAKLVQARGYTEINLNVGCPSDRVQNGMFGACLMANADLVADCIKAMQDVVDIPVTIKHRIGIDTLDSYAFLCDFIDKIQPYSQDFIVHARKAWLSGLSPKENREIPPLDYERVYQLKRDFPQLNISINGGIKTIDEIKQHLTKVDGVMVGREAYQNPALLGEIDQQLFDQNQPLITARIAVENMLPYIEQQLSKGVYLNHIVRHMLGAFQNCKGARQWRRHLSENACKQGAGIEVVEQALRFVTE
MGSDKIHHHHHHMHQTLATSRKTSNACNVLALCTRDNPAILTIAHRGFWTATAENSLASVRAAVAAGVEMIEIDTQATADGRLVVIHDETLDRTTTGKGTVSALPFEVVRAAKLKAGAGGDGADVTDECVPTLEEVLEEARGRITVNIDTKFTRDLPQVMETVLRLGVEDQVLVKTDVDPEAERFEVLGSHWFGRIPHMPMFPVRKGKFAEDLRRIEALKAPMIEVKFTDIADLAEGRAEMERQNIRLWINSLDVSHCLDFNDTRALSNPEAVWGALAEAGTGAIQTDEVEAFTAWLKAGAGETGRAWTR
